Results on one molecule are retold here after article PMC5428264, “Dentin sialoprotein facilitates dental mesenchymal cell differentiation and dentin formation” (Scientific Reports, 2017).

Test [1] has as its target T1, GST-DSPf5 fusion protein (COOH-terminal DSP domain aa 363–458) (mouse, UniProt P97399 363-458).
T1 construct: also called DSP peptide; source: E. coli BL21, purified (GSTrap 4B)
T1 sequence (looked up): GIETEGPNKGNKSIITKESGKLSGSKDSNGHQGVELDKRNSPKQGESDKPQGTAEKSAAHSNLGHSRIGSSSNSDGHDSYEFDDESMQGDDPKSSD
Briefly: co-IP; in vitro immunoprecipitation: 10 μg of purified GST-DSP and GST-Ocln fusion proteins mixed, precipitated with DSP or Ocln antibody and protein G Sepharose, blotted with the other antibody. The following applies: both partners purified.

For test [2], the target named is T2, biotinylated DSPf5 (recombinant DSP aa 363–458) (mouse, UniProt P97399 363-458, biotin (Sulfo-NHS-LC-biotin)).
T2 construct: The same recombinant protein as m6, labelled with biotin; source: E. coli BL21, purified (GSTrap 4B), then reacted with Sulfo-NHS-LC-biotin
T2 sequence (looked up): T1 sequence (looked up)
Briefly: ELISA; substrate binding assay: OclnL2 coated at 1 μg per well (BSA as control), biotinylated DSPf5 at 0–18 fold molar excess in PBS with 1% BSA, room temperature, different time periods; AP-conjugated streptavidin, PNPP, 405 nm. The following applies: both partners purified.

B1: GST-OclnL2 fusion protein (occludin extracellular loop 2, aa 194–241) (domain or fragment, mouse, UniProt Q61146 194-241, looked up)
chain: GVNPTAQASGSMYGSQIYMICNQFYTPGGTGLYVDQYLYHYCVVDPQE
notes: occludin, mouse, extracellular loop 2, residues 194-241 counted from the translation start site; Cloned into pGEX-6P3 from pBluescript SK-Ocln; also called Ocln loop2; extracellular loop 2 of Ocln; source: E. coli BL21, purified (GSTrap 4B)
B1: the binding result in test [1] and in test [2] was “binds” each time.
